Experimental findings from patent US20080292662A1 are described below.

This assay has as its target Rhodanese (Sigma), denatured in 8 M urea (UniProt P00586). In words: cell-based or functional assay.
UniProt P00586, sequence (P00586 2-297 limits assumed): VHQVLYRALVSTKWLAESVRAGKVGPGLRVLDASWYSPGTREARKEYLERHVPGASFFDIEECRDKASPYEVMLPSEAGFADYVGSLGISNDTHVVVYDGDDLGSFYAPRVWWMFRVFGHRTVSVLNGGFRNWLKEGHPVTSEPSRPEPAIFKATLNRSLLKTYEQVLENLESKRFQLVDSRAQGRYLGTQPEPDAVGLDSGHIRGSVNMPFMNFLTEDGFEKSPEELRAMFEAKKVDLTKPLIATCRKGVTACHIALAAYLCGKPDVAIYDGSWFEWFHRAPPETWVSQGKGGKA

Take “Histidine-tagged ClpL of Streptococcus pneumoniae (from pKHY004, expressed in E. coli)”: the Rhodanese activity (%) after refolding with ClpL 90 Nm was found to be 9%.
